Source: the DeepSol protein solubility set

assay: soluble on expression in E. coli; label from the status in PepcDB or PDB records

| Sequence | soluble on expression in E. coli |
| --- | --- |
| GWNECNDKLRDISRSFWRGDQGYLKEFATRLMGSRDIYSAANWPYKLTVNYITYHDGFTLQDLVSYKHKHNEANGEENRDGHGDNRSENYGVEGETENIMIIATREKQKRNLIASLLFAFGIPHILTADVLSHSQDGNNNAYCQDNKTSWINWSETERKAHFKTWMAQMVANRHQYMVPFIRAFSGENRNNNRIFWRRTDGRLMEHDDWNRLSSVALHLGIGKDGQELVYLINQTNATARFKLPNERNQEWVTICDTNVRNLNPGHAEGEVLLSPTSMVILHYQPKPNSPQGEQLQS | not soluble |
| MGSDKIHHHHHHSLDQAKKLYNDGKYAEAKPVFEKLVKQAPSNASYNQWYGVCCFETGDLAGAEKHLKVAVKRRVQDAYRYLGEVYYQTYRFNEAEEMFDEYITLLTKKKQDVEPYQIRMDLANKASRMLDKVENVQIIDSLVVDKDNFLSAYTLSEESGTLTTYQDFFQTNDPGNSSVYMNQKEDKIYYAHSTDGNHNCLFTQSKLIDQWGDEKQLPMNINSDADDGYPFVLSDGVTIYYASKGNSSLGGYDLFVTRYNINSDTYLTPEQLGMPYNSPFNDYMMVIDEAKQLGWFVSDRYQPEGKVCVYLFIPNDNRERVDSEDIELKRARASIASIKDSWKPGSNYEELIHLAHTEIPYGRIEIKKDFTFPIHNDIVYYTLDDIQSPEAKNYYEKVVSIHKQIKELNEKLESLRASYIKGNKAKREQLKPTILDTEEKLNNLLGQPDEWEKKARNAEIVYLRNNHK | not soluble |
| MGSDKIHHHHHHVKIAIASDHAAFELKEKVKNYLLGKGIEVEDHGTYSEESVDYPDYAKKVVQSILSNEADFGILLCGTGLGMSIAANRYRGIRAALCLFPDMARLARSHNNANILVLPGRLIGAELAFWIVDTFLSTPFDGGRHERRIRKIDEV | soluble |
| GSHGGSMKAANASSAEAYRVLSRAFRFDNEDQKLWWHSTAPMFAKMLETANYTTPCQYQYLITYKECVIPSLGCYPTNSAPRWLSILTRYGTPFELSLNCSNSIVRYTFEPINQHTGTDKDPFNTHAIWESLQHLLPLEKSIDLEWFRHFKHDLTLNSEESAFLAHNDRLVGGTIRTQNKLALDLKDGRFALKTYIYPALKAVVTGKTIHELVFGSVRRLAVREPRILPPLNMLEEYIRSRGSKSTASPRLVSCDLTSPAKSRIKIYLLEQMVSLEAMEDLWTLGGRRRDASTLEGLSLVRELWDLIQLSPGLKSYPAPYLPLGVIPDERLPLMANFTLHQNDPVPEPQVYFTTFGMNDMAVADALTTFFERRGWSEMARTYETTLKSYYPHADHDKLNYLHAYISFSYRDRTPYLSVYLQSFETGDWAVANLSESKVKCQDAACQPTALPPDLSKTGVYYSGLH | soluble |
| MNPVAFIREKREGKKHRREDLEAFLLGYLRDEVPDYQVSAWLMAAFLRGLDPEETLWLTETMARSGKVLDLSGLPHPVDKHSSGGVGDKVSLVVGPILAASGCTFAKMSGRGLAHTGGTIDKLESVPGWRGEMTEAEFLERARRVGLVIAAQSPDLAPLDGKLYALRDVTATVESVPLIASSIMSKKLAAGARSIVLDVKVGRGAFMKTLEEARLLAKTMVAIGQGAGRRVRALLTSMEAPLGRAVGNAIEVREAIEALKGEGPGDLLEVALALAEEALRLEGLDPALARKALEGGAALEKFRAFLEAQGGDPRAVEDFSLLPLAEEHPLRAEREGVVREVDAYKVGLAVLALGGGRKRKGEPIDHGVGVYLLKKPGDRVERGEALALVYHRRRGLEEALGHLREAYALGEEAHPAPLVLEAI | soluble |
| MGSDKIHHHHHHMESLIESNINFSIFFYNPNIHPVKEYLIRKEENIRFAEKHNIPFIDADYDTDNWFARAKGMENEPERGIRCTMCFDMRFERTALYAYENGFSLISSSLGISRWKNMAQINDCGIRAASHYPDIQYWDYNWRKNGGSSRMIEISKREEFYQQEYCGCVYSLRDTNRWRMSNGRDRIKIGVKFYSNAMEND | not soluble |
| SDAALLLNVEGVKKTILHGGTGELPNFITGSRVIFHFRTMKCDEERTVIDDSRQVGQPMHIIIGNMFKLEVWEILLTSMRVHEVAEFWCDTIHTGVYPILSRSLRQMAQGKDPTEWHVHTCGLANMFAYHTLGYEDLDELQKEPQPLVFVIELLQVDAPSDYQRETWNLSNHEKMKAVPVLHGEGNRLFKLGRYEEASSKYQEAIICLRNLQTKEKPWEVQWLKLEKMINTLILNYCQCLLKKEEYYEVLEHTSDILRHHPGIVKAYYVRARAHAEVWNEAEAKADLQKVLELEPSMQKAVRRELRLLENRMAEKQEEERLRCRNMLSQGATQPPAEPPTEPPAQSSTEPPAEPPTAPSAELSAGPPAEPATEPPPSPGHSLQH | soluble |
| MAPTRAVIPDDFELPVDAFDIPICYDGDLSGVVIPEGLVRDRVRRLAKDIHAEIGNKPIALLCVLKGSYKFFTALVEELTNARSSCPEPMTVDFIRVKSYEDQMSTGQIQIMGLSNLDELKGKSVLVVDDISDTGRTLAKLLSTLHETGVEKTWTALLLSKRVKRVVDVPEDFVAFEIPDKFIVGYGLDYNQKFRDLGHICVMSPAGIEKYKSE | not soluble |
| MGHHHHHHSHMAGTALKRLMAVYKQLTLNPPEGIVAGPMNEENFFEWEALIMGPEDTCFEFGVFPAILSFPLDYPLSPPKMRFTCEMFHPNIYPDGRVCISILHAPGDDPHGLREQPERWSPVQSVEKILLSVVSMLAEPNDESGANVDASKMWRDDREQFYKIAKQIVQKSLGL | not soluble |
| MGSDKIHHHHHHMTLPEPDFIARDPAVITAELIAQYEQMSGKTLYPAQVERLLIDLMAYRETLVRVGIQEAAKQNLVAYARAPMLDYLGQLVGVTRLPAQPARATLRFTLDAPLASPLPIPAGTRVESGDGVVAFATDEAATLPAGRTSLEIAATCQDAGSAGNGWQPGQIVNLMDDLGDMDVVVTNTAVTAGGVDEEDDERLRERIMLAPESFSNAGSRQAYRFHALRAHQSIVDVAVLSPTPGVVQLYPLLKTGLPDANMLALVQATCSAERVRPLTDYVEALAPTAIDYAIDVRLTVYPDVDGKAVKTQAQERLQAYAAERAGALGRDIVPSQIIAAVQVPGVYQATVASPGLQQVPEHGWARCTGVSVTLEGVSHG | not soluble |
| SSLIQAGQQTRFTTDASAAVEPADSARETWSRGVLVAWDMTLGDVVKELRRYRSGYLGIAPEVAGLRVFGSFPLRDTDDTLTMLASALPIRIQRTLPWWVSIEARTDADPHR | not soluble |
| MGSDKIHHHHHHMKADFDVLIIGAGLSGIGMACHLAEACPDKRVGILERRSAIGGTWDLFRYPGIRSDSDMFSFGYKFRPWHELKVLADGPAIRRYIADTAREYGVDKSIRFGLKVLRASWSSEDRSWTVTVQQEDSHETHSLTCKFLISCTGYYNYDHGYRPDFTGLERFQGICVHPQHWPQDLDYHGKRVIVIGSGATAVTLVPSMAGKASHVTMLQRSPSYVFSVPAYDKISAVLQKMLPASWVFGLARWRNIRLQRFIYRAARRWPQRVRAWLLSHVEQQLGHGADLRHFSPEYNPWDQRLCAVPDGDLFKAIREGKASVVTDQIDTFTETGVRLKSGRRLDADIIVTATGLQLQSLGGMEVQVDGQPRHASSLMTYKSVLMQDVPNMAHLFGYTNAPWTLKVDLAASYICRLLDHMDRHEYEVVTPGAPAGEMLDETVMDSLQSGYVQRGRNVLPRQGRKLPWRVVHNFEADRDMLTRHPVSDPALAFVRAATTARTGKASELVATRMDGTAV | not soluble |
| MNDDKLRSLFASLATLTQQGPIPVQAYSMLAGQHSTEVLAEHMRLRWLSDGRFGPVAANILMHIHKSDPKDISLSSNVLALLLNDYRNRLSVRNDSRLMFRNCVKTLFSMYPVYVKMDECVSKCFIKPMFSSLDALIDDAPDTEDLETAGILLSENGRVLHDLNSYLVERIIVKLRHKLISEDPIVTKHVRQIFIHVYDLWAFGWSELNIPECLLTLSAEGKLSIVDQTPLRKNDISKQEFGSKESIV | not soluble |
| MITMIYKGNRAAWAYIVARTKVMKSRLLKPEDFRKLLNMEFDEIVRYIGETEYKKEIDELGYKFTGPRLLDHALYANLARTYRKLIEVSFGASKFLIMKYLEKWDVWNIINIIRGKMANVQPEVVDDILVPAGERDMDFWKTLLVKDIEEIVKSFEGTPYYEPLSKIGSEDMSKIEDGLYKVYYRELLKLNPSDFAMKLFLDFIKMEIDIRNVKTLLRLKAEDATPDEIMECTIPGGYELTEEELRKLAAMPIDEMIKALEGYWFWNDVQIEGKEVAAVEIEFDKVWIKTISKRASNYPLSILPVLQYIVLKKVEVDNLRVLGWGKYYGLPSEEIERQMVIL | not soluble |
| GPLGSMDAKARNCLLQHREALEKDIKTSYIMDHMISDGFLTISEEEKVRNEPTQQQRAAMLIKMILKKDNDSYVSFYNALLHEGYKDLAALLHDGIPVVSSS | soluble |
| MAGDPMYKIGIDVGGTNTDAVILDHQLNLIHSVKVPTTDDIQTGIAGALNKVLAESAVDPTKVTHAMLGTTQCTNAIVERKKLAKVGVLRLGYPATASVLPYTAWPKDLVATLSETYALAHGGYEYDGQPLTALDEEELRGILASWRGEVEAIAVIGVFSSLKNDQELFVQALAKEVLGADVPVSCSSMIGSVGLIERENATILNAALHKVIKVTSEGFEQALEQEKIHHAQVYLCQNDGTLMSLTYAKQFPILTIACGPTNSIRGASYLAGLKDAVVLDVGGTTSDIGVLVDGFPRESSLAVDVGGVRTNFRMPDIVSIGVGGGSLVREQPDGSVTVGPDSVGYRITQEALVFGGTQLTTTDIAVRLGHAQVGDPSKVAHLDQAFAEKVYQKIGELVSEAIDRMKTSSADVTVVLVGGGSIIIPEELTGVKALIRNKNGAVANAIGASIAQISGQYEQIYVYSKIQRDAALTDAQEKAVQQAELAGAVPGTIELVEVEETPLAYHPENATRLRVKVVGNMYLEHHHHHH | soluble |
| MGSDKIHHHHHHMSDASKPDSNEVREIRINPVVPGESVLVATARSMRPKKAEELAPRDTRKHVETCPFCRGNEHKTPPAILTWPDTGDWQIRMVENLYPVLGDDRAQAGFTFGLQQTIDGYGRHEVIIDHSEHGIAVQDMAETHLAALFGVYQTRMRQLFDSDERLKYVLVFKNFGPAAGASIPHTHSQVIAMPVVPENVDAEVRNSATHYAKHHHCIFCALIDEALTFEATIYDRNSGAVRRKINVGQYVVERGEKFIAIKPFASRYEWEVHILPLAHQADFLDVRGEDLADLARVMKRTMARLDAVIGGAQYNFFLHSVPHDAQQATHAPSYHWHLEICPRTSIPTGFELGSGLFVNTINPEEAAERLRSVELPAR | not soluble |
| MVDSYDDSLDGEKSKTQVKRELHALVDLGERLTTLKADVLAKLPLTDALRKALAEAPKHTANIARKRHILFIGKLMRDQDQEAILVLLDQLDASTRQYNERFHNLERWRDRLIAGDDADLEKFVIEYPDADRQQLRSLIRQAQHEVARNKPPATSRKIFKYIRELDELQ | soluble |
| MNQKAVILDEQAIRRALTRIAHEMIERNKGMNNCILVGIKTRGIYLAKRLAERIEQIEGNPVTVGEIDITLYRDDLSKKTSNDEPLVKGADIPVDITDQKVILVDDVLYTGRTVRAGMDALVDVGRPSSIQLAVLVDRGHRELPIRADYIGKNIPTSKSEKVMVQLDEVDQNDLVAIYENE | soluble |
| MSLTKFHGVFPPVPTIVNAQGELDKVGMATLLDHLIASKVNGVLLLGSGGEFCHMTNALRLETAEFCVRHINRRIPVLLGISSTSTQEVIEYGQHADRLEVDAVLVLNPYYARLTDEYIYHHFKTVANNIKSPVILYNFPALTGQDLSVDLITRLAQDHPNIIGIKDTVDNISHIREIINNVRPVRPDFVIFSGYDEYMMDTLILGGNGGIPATANFAPQLTCGIYRAWCEKEYETMFGLQRRLSALSTIYSLDSPFFGIIKKAIQLSGVDISTHVMPPVLPANEEHISNLKQILQRAGLEGHHHHHH | soluble |
